The values below come from patent publication US20140186371A1 (published 2014).

For test [1], the target named is T1, human iC3b (human, UniProt P01024 23-667; P01024 749-1303; P01024 1321-1663).
T1 construct: Bought purified protein; three chains held together by disulfide bonds; also called purified human iC3b (Complement Technology #A115)
Put plainly: sandwich ELISA: chicken anti-C3 capture antibody on the plate, iC3b captured, A209 as detecting antibody, goat anti-mouse-HRP, ABTS. (In an ELISA, binding on a coated surface is turned into a signal by an enzyme label.)

Test [2] deals with T1, human iC3b. Put plainly: sandwich ELISA; reference C3b.
The target in test [3] is T1, human iC3b. Put plainly: Biacore (SPR); reference C3b.
The target in test [4] is T1, human iC3b. Put plainly: sandwich ELISA, antigen captured by chicken anti-C3 antibody.
Test [5] deals with T1, human iC3b. Put plainly: Biacore, antibody captured on anti-mouse CM5 chip. Background: In SPR one partner is held on a chip, and binding of the other changes the refractive index at the surface.
The target of the next test is T2, human C3 (human, UniProt P01024 23-667; P01024 672-1663).
T2 construct: Bought purified protein; also called C3 (Complement Technology #A113)
T2 sequence (P01024 23-667, chain 1 of 2): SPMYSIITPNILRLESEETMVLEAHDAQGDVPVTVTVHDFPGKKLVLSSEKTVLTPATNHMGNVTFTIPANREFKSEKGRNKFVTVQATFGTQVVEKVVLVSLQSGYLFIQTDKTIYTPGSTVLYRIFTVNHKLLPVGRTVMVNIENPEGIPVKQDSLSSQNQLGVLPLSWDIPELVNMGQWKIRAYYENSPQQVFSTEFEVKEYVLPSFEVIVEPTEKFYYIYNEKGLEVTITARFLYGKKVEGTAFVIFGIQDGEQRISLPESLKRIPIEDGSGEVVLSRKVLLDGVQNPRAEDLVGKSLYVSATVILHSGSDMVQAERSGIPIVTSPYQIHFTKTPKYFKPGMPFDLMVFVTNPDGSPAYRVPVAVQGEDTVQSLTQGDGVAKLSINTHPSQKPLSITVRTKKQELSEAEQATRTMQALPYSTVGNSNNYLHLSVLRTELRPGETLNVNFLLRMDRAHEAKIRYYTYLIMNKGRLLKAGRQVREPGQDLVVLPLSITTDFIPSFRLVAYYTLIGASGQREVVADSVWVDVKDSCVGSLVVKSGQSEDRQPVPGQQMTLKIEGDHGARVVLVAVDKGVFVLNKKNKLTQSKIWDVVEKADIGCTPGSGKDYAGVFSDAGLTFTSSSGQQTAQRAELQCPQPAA
T2 sequence (P01024 672-1663, chain 2 of 2): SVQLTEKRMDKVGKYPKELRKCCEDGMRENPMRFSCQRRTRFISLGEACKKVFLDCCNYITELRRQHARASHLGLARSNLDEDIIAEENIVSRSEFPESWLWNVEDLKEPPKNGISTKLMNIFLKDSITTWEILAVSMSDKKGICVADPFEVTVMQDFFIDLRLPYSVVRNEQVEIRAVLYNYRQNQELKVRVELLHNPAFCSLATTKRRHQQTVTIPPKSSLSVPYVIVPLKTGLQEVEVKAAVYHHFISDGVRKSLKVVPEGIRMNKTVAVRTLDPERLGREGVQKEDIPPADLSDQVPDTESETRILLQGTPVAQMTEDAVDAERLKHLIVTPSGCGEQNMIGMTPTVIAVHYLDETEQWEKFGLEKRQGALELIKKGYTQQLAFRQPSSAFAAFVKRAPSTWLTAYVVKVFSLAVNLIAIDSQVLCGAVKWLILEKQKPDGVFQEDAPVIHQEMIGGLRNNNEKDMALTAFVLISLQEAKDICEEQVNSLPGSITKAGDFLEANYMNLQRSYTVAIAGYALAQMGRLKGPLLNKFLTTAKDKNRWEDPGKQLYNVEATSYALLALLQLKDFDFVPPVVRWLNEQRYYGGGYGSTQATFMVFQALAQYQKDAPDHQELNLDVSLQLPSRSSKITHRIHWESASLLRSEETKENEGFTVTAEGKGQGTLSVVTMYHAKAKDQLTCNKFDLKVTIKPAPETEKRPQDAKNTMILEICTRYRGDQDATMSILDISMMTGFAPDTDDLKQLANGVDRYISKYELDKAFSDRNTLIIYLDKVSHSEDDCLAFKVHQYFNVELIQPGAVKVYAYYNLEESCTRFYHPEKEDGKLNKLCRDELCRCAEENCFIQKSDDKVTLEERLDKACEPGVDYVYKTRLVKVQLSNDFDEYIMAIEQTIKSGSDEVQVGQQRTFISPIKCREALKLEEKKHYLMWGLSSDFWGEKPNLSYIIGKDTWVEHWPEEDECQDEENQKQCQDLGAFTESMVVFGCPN
Put plainly: Biacore, antibody captured on anti-mouse CM5 chip, antigen in solution.

In test [6] the target is T1, human iC3b. The test is described as above.

T1 sequence (P01024 23-667 limits assumed, chain 1 of 3): as the sequence (P01024 23-667, chain 1 of 2) above
T1 sequence (P01024 749-1303 limits assumed, chain 2 of 3): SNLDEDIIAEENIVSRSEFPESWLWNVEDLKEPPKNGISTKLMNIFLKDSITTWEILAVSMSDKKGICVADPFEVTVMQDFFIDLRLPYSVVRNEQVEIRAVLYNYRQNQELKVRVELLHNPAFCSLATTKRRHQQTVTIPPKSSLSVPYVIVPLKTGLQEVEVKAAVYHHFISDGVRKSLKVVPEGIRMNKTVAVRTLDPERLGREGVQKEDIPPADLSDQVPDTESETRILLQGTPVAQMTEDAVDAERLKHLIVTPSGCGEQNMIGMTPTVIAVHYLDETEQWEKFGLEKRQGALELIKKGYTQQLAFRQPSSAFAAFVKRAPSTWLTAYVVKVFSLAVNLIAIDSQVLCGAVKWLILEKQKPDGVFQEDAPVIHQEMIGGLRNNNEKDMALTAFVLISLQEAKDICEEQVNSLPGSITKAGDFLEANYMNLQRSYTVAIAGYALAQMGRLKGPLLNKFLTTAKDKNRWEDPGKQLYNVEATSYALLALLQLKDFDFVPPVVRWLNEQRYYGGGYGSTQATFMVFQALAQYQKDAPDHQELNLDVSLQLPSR
T1 sequence (P01024 1321-1663 limits assumed, chain 3 of 3): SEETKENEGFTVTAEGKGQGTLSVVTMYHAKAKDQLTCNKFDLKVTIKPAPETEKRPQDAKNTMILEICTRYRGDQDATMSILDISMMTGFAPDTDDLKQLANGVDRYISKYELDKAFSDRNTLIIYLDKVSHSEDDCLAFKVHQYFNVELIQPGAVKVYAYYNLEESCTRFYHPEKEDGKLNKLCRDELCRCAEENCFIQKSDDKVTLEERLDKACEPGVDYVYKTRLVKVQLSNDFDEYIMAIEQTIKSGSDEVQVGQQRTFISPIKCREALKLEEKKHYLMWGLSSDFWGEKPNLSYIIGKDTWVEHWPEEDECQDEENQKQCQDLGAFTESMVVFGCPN

One may read the EC50 (read off the curve) as the concentration giving half of the maximal effect. A low value points to greater potency. Consider A209 antibody (Quidel), for which the EC50 (read off the curve) in the test with human iC3b [1] was found to be 0.03 µg/mL.

B1: mouse monoclonal antibody 5D2 (antibody, V domains shown)
VH: EVQLQQSGPELVKPGASVKISCKASGYTFTDNYYMNWVKQSHGKSLEWIGHIYPNNGVTSYNQKFRGKATLTVDKSSNSAYMELRSLTSEDSALYYCARNKLLSLYWYFDVWGTGTSVTVSS
VL: DIQMTQSSSSFSVFLGDRITITCRASVDIYNRLAWFQQKPGNAPRLLISGATSLATGVPSRFSGSGSGKDYTLSITSLQTEDVTIYYCQQYWSTPWTFGGGTKLEIKR
As to B1, the “fold higher affinity constant for iC3b than C3b” value with human iC3b [2] is at least 2 fold; with human iC3b [3], at least 10 fold. Moreover, the “fold specificity for iC3b vs. C3 or C3b” value with human iC3b [4] was above 2 fold.

B2: mouse monoclonal antibody 6G1 (antibody, V domains shown)
VH: QIQLVQSGPELKKPGETVKISCKASGYTFTNYGMNWVKQAPGKDLKWMGWINTYTGEPRYADEFKGRFAFSLETSASTAYLQINNLKNEDMATYFCAKGGYPHYYSMDYWGQGTSVTVSS
VL: DIQMTQSTSSLSASLGDRVTISCRASQDINNYLNWYQQKPDGTIKLLIYYTSKLHSGVPSRFSGSGSGRDYSLTISNLEQEDIATYFCQQGNTLPRTFGGGTKLEIKR
For orientation: Kd means the concentration at which binding is half-saturated. A lower Kd goes with a tighter complex. As for B2, the “fold difference in KD, iC3b relative to C3” value in the test with human iC3b [5] is above 10 fold. Besides, the Kd with human C3 amounted to 2100 nM; in the test with human iC3b [6], 43.3 nM. Also, the “fold higher affinity constant for iC3b than C3b” value with human iC3b [2] was at least 2 fold; in the test with human iC3b [3], at least 10 fold. Also, in the test with human iC3b [4], the “fold specificity for iC3b vs. C3 or C3b” value was above 2 fold.
